{"source": "patent US20250295734A1", "about": "“ANTICOAGULANT PROTEINS AND THEIR USE FOR TREATING DISEASES ASSOCIATED WITH THE ACTIVATION OF NEUTROPHILS” (BIOXODES, priority 2018, published 2025)", "key": {"[1]": {"tested_on": "platelet accumulation and fibrin generation on the injured vessel walls", "test": "Laser-induced vessel wall injury of cremaster muscle arterioles: platelet and fibrin detection", "assay_type": "in vivo, mice (C57BL/6JRj)", "settings": "iv bolus 20.5 mg/kg + infusion 3.7 mg/kg/h", "method": "(§1) Ir-CPI was administered intravenously as a bolus (20.5 mg/kg) immediately followed by a continuous infusion at a rate of 3.7 mg/kg/h (see Table 1 below). Due to fast distribution and elimination of Ir-CPI in the mice (t1/2α=14 min and t1/2β=236 min), the combination of the bolus and the infusion was chosen in order to maintain a constant Ir-CPI concentration into the blood.\nIntravital video-microscopy of the cremaster muscle microcirculation was done as previously described (Falati et al., 2002).\nMice were anesthetized with intraperitoneal injection of ketamine (125 mg/kg), xylazine (12.5 mg/kg) and atropine (0.25 mg/kg) and were maintained at 37° C. on a thermo-controlled rodent blanket.\nA tracheal tube was inserted into the trachea to facilitate breathing. A canula was inserted into a jugular vein for administration of pentobarbital. Pentobarbital (12 mg/kg) was administered in the jugular vein every 20-30 minutes to maintain the mice under anesthesia throughout the handling. The same jugular vein canula was used for the administration of the antibodies and the enzymatic substrate coupled to a fluorochrome that is necessary to follow the development of the thrombus (detection of fibrin and/or platelets and/or neutrophils and/or neutrophil elastase activity). A canula was also inserted in the second contralateral jugular vein for administration of the vehicle or the test item (Ir-CPI or NaCl).\nAfter the scrotum was incised, the testicle and surrounding cremaster muscle were exteriorized onto an intravital microscopy tray. The cremaster muscle was continuously perfused with thermo-controlled (37° C.) and aerated (95% N2, 5% CO2) bicarbonate-buffered saline solution throughout the experiment.\nMicrovessel data were obtained using an Olympus AX61WI microscope with a 60×0.9-numerical aperture water immersion objective. The digital wide-field fluorescence microscopy system has previously been described (Falati et al., 2002). Digital images were captured with a Cooke Sensicam CCD camera in 640×480 format.\nVessel wall injury was induced with a Micropoint Laser System (Photonics Instruments) focused through the microscope objective, parfocal with the focal plane and aimed at the vessel wall, as previously described (Dubois et al., 2006). Typically, 1 or 2 pulses were required to induce vessel wall injury.\nMultiple thrombi were studied in a single mouse, with new thrombi formed upstream of earlier thrombi to avoid any contribution from thrombi generated earlier in the animal under study. Laser-beam injuries were done at various time after the start of test-item administration (+5 min up to about 150 min after bolus administration of Ir-CPI or NaCl (control)).\nImage analysis was performed using Slidebook 4.1 (Intelligent Imaging Innovations). Fluorescence data were captured digitally at up to 50 frames per second and analyzed as previously described (Falati et al., 2002). The kinetics of thrombus formation were analyzed by determining median fluorescence values over time in a minimum number of 20 thrombi.\nIn vivo detection of fibrin was performed using an Alexa Fluor 488-conjugated anti-fibrin antibody from Darbousset et al., 2014, administered intravenously at 0.5 μg/g of mouse. […]\nPlatelet accumulation and fibrin generation on the injured vessel walls were monitored using the following fluorescently labeled antibodies: DyLight649-labeled anti-GPIb antibody and Alexa Fluor 488-conjugated anti-fibrin antibody, respectively."}, "[2]": {"test": "Distribution and elimination of Ir-CPI in the mice", "assay_type": "in vivo", "method": "as §1"}, "intrinsic pathway": {"tested_on": "intrinsic pathway", "settings": "in vitro; dose-dependent; cited from earlier work"}, "[3]": {"tested_on": "extrinsic or common pathway", "settings": "in vitro; cited from earlier work"}, "[4]": {"tested_on": "thrombin generation induced by ellagic acid (intrinsic pathway activator)", "settings": "cited from earlier work"}, "Factor XIa": {"target": "Factor XIa (Homo sapiens, UniProt P03951)", "sequence (P03951 19-387 limits assumed)": "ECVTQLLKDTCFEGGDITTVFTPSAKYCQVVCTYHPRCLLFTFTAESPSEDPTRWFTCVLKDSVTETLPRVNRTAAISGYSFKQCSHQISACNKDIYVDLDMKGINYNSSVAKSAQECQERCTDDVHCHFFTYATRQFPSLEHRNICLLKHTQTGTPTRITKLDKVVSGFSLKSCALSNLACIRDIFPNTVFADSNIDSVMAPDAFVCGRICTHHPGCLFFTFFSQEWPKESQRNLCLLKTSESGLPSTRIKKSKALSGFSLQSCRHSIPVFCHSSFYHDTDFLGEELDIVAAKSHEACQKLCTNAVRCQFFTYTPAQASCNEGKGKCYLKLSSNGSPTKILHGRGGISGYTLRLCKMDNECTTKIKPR", "sequence (P03951 388-625 limits assumed)": "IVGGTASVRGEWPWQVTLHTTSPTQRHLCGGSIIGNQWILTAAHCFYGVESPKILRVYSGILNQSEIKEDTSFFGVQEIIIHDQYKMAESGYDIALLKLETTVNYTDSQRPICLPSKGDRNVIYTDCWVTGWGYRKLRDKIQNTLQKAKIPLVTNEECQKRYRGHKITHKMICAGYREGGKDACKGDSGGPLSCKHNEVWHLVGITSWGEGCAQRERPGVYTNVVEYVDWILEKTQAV", "settings": "cited from earlier work"}, "FXIa": {"target": "FXIa (Homo sapiens, UniProt P03951)", "sequence (P03951 19-387 limits assumed)": "as the sequence (P03951 19-387 limits assumed) above", "sequence (P03951 388-625 limits assumed)": "as the sequence (P03951 388-625 limits assumed) above", "settings": "cited from earlier work"}, "FXIIa": {"target": "T1, FXIIa (Homo sapiens, UniProt P00748)", "T1 construct": "The resulting α-FXIIa has a heavy chain of 50 kDa, connected to a light chain of 28 kDa", "T1 sequence (P00748 20-372 limits assumed)": "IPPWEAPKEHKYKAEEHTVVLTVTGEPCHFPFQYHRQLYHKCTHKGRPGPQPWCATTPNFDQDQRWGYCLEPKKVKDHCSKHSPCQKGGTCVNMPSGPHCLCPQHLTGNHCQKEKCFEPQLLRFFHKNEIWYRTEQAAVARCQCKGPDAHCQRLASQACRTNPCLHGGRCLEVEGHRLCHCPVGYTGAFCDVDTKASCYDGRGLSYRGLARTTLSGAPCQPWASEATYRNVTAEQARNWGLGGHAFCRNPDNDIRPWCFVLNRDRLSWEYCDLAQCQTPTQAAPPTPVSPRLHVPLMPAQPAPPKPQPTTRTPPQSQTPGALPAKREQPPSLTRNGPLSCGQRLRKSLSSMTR", "T1 sequence (P00748 373-615 limits assumed)": "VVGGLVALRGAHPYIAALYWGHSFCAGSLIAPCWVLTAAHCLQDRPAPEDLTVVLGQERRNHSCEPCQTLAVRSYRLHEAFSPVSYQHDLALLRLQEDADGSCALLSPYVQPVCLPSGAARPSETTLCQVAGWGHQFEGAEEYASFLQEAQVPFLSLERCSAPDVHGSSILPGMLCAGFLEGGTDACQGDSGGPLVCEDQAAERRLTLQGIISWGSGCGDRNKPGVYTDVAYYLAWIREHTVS", "settings": "aPTT-based test, FXII deficient plasma; cited from earlier work"}}, "data": [{"molecule": "Ir-CPI: Ixodes ricinus salivary gland polypeptide, contact phase inhibitor, MW=7660 Da; sequence SEQ ID NO: 1 or SEQ ID NO: 2 (protein) ANHKGRGRPAKCKLPPDDGPCRARIPSYYFDRKTKTCKEFMYGGCEGNENNFENITTCQEECRAKKV", "values": [{"measurement": "maximal median of integrated platelet fluorescence", "setting": "[1]; at T214 sec after laser injury", "result": "121 783 AU"}, {"measurement": "median of integrated platelet fluorescence", "setting": "[1]; at T228 sec (end of measurement)", "result": "101 887 AU"}, {"measurement": "median of integrated fibrin fluorescence intensity compared to control mice", "setting": "[1]; every time point 0, 15, 30, 45, 75 and 90 min", "result": "lower"}, {"measurement": "fibrin generation compared to control mice", "setting": "[1]; first 3.8 min after laser injury", "result": "less important"}, {"measurement": "platelet accumulation compared to control mice", "setting": "[1]; short time period (228 sec)", "result": "drastically decreased"}, {"measurement": "t1/2α", "setting": "[2]", "result": 0.233, "unit": "h"}, {"measurement": "t1/2β", "setting": "[2]", "result": 3.93, "unit": "h"}, {"measurement": "activated Partial Thromboplastin Time (aPTT)", "setting": "intrinsic pathway", "result": "prolong"}, {"measurement": "Prothrombin Time (PT)", "setting": "[3]", "result": "no effect"}, {"measurement": "Thrombin Time (TT)", "setting": "[3]", "result": "no effect"}, {"measurement": "dilute Russell's Viper Venom time (dRVVT)", "setting": "[3]", "result": "no effect"}, {"measurement": "thrombin generation", "setting": "[4]", "result": "strong dose-dependent reduction"}, {"measurement": "activation of Factor XII by Factor XIa", "setting": "Factor XIa", "result": "inhibit activation"}, {"measurement": "binding to FXIa", "setting": "FXIa", "result": "binds"}, {"measurement": "FXIIa clotting activity", "setting": "FXIIa", "result": "inhibits"}]}]}
